Data on three molecules can be found in US6946133.

Test [1] deals with T1, HLA class I-A2 molecule (human), P04439.
T1 chain: not shown
Description: T2 binding assay, peptide 50 µg/ml for 24 h, anti-HLA-A2 mAb, flow cytometry; cut off for positivity 100. On the technique in general: Flow cytometry measures light scatter and fluorescence of single cells or particles in a stream.

The target is the same in test [2]. Kind of test: T2 cell binding assay, peptide 50 µg/ml, HLA-A2 upregulation read with MAb A2,69 by flow cytometry.

With FLTPKKLQCVDLHVISNDVCAQVHPQKVTK (modifications not checked) [prostate specific antigen oligo-epitope peptide (PSA-OP)], the T2 binding, relative fluorescence (mean intensity) in test [1] amounted to 63.3.

In test [2], KLQCVDLHV (modifications not checked) [PSA peptide 146-154] gave a mean channel fluorescent intensity of 224.

FLTPKKLQCV (modifications not checked) [PSA peptide 141-150] gave a mean channel fluorescent intensity in test [2] of 230. The molecule further came in with a T2 binding, relative fluorescence (mean intensity) in test [1] of 128.
